Measured values as given in patent US20120277161A1, “INHIBITION OF MULTIPLE CELL ACTIVATION PATHWAYS” (INTER-K PTY LIMITED, priority 2009, published 2012).
Ends that are not written are not given here.

Columns and labels:
human ERK2 (human) = human ERK2 (human) (UniProt P28482); test: cell-based or functional assay
MEK1 (h) (human) = MEK1 (h) (human) (UniProt Q02750); test: cell-based or functional assay

Chain of human ERK2 (human) (P28482 whole entry): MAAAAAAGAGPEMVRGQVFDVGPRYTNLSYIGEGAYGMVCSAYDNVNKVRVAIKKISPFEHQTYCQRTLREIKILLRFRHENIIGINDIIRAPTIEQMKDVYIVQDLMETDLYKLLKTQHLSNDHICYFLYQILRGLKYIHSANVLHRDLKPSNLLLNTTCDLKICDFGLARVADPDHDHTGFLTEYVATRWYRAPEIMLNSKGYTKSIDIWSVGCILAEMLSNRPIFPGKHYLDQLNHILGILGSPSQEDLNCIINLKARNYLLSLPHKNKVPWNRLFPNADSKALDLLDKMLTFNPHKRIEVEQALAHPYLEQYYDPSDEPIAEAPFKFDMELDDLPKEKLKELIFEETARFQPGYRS

- % inhibition of kinase activity, cell-free assay, dendrimer at 20 µM (human ERK2 (human)): 96 % inhibition
- % inhibition of kinase activity, cell-free assay, dendrimer at 20 µM (MEK1 (h) (human)): 92 % inhibition
B1: peptide dendrimer Dend 10β5 presenting 10 monomer units of the β5 integrin derived peptide … (peptide, part only)
chain: RSRARNPLYR
modifications: also: 10 copies on 10-mer dendrimer framework
